Laboratory results reported in patent US20200087367A1 (ACCELERON PHARMA, published 2020).

T1: BMP10 (human, UniProt O95393 317-424)
T1 construct: also called hBMP-10; hBMP10
T1 sequence: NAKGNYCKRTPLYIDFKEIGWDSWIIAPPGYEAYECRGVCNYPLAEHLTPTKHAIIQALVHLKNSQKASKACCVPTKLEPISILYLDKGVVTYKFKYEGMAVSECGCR

T2: BMP6 (human, UniProt P22004 382-513, limits assumed)
T2 sequence (looked up): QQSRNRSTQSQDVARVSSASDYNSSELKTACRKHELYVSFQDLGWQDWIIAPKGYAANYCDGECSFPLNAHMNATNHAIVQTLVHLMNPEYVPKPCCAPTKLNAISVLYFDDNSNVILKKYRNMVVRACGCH

T3: BMP9 (human, UniProt Q9UK05 320-429)
T3 construct: also called hBMP-9; hBMP9
T3 sequence (looked up): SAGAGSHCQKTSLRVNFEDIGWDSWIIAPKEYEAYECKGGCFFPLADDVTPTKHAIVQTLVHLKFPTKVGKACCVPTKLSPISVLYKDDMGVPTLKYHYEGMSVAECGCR

T4: hENG(26-586) (human, UniProt P17813 26-586)
T4 construct: Bought protein, a human variant with no Fc domain; also called R&D Systems, catalog #1097-EN
T4 sequence: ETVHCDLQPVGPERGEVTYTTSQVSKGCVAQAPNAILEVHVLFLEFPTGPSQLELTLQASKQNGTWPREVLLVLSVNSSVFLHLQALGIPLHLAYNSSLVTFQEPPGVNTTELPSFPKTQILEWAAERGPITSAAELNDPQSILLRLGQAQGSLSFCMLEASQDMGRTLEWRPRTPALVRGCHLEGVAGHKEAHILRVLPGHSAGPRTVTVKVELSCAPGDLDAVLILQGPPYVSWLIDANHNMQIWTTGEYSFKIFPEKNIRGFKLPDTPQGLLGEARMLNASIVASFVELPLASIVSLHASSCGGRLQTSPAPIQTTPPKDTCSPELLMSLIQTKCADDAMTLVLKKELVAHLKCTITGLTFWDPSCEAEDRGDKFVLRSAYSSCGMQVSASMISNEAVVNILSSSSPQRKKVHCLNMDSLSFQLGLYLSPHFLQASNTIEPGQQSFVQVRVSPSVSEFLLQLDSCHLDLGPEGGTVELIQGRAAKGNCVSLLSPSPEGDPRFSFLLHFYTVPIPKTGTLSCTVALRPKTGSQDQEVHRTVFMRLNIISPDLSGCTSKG

T5: hENG(26-437)-hFc (human, UniProt P17813 26-437)
T5 construct: HEK 293, purified; not shown: linker and human IgG1 Fc domain
T5 sequence: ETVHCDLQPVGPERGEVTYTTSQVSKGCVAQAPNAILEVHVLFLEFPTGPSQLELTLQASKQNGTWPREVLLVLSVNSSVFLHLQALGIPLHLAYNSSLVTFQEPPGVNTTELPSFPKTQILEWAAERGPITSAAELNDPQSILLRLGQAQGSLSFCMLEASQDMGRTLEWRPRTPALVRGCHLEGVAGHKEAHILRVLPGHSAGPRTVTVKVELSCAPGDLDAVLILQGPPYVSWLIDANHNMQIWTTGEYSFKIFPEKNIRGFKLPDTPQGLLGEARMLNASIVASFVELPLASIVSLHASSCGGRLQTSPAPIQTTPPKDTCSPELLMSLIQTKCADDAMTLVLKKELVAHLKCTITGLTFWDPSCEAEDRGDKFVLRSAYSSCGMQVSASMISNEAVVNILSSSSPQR

T6: BMP10pro(22-315)-mFc (human, UniProt O95393 22-315)
T6 construct: also called mouse Fc equivalent construct; not shown: optional linker and mouse immunoglobulin G1 Fc domain
T6 sequence: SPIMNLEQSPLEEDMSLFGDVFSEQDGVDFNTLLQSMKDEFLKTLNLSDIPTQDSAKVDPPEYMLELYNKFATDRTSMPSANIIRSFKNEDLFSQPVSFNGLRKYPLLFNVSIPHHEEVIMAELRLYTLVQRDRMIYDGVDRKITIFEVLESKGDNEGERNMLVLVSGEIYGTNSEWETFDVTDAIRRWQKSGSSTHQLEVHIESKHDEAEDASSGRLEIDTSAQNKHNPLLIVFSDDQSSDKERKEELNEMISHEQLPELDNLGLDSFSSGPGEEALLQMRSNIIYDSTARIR

T7: BMP10pro(22-312)-mFc (human, UniProt O95393 22-312)
T7 construct: also called mouse Fc equivalent construct; not shown: optional linker and mouse immunoglobulin G1 Fc domain
T7 sequence: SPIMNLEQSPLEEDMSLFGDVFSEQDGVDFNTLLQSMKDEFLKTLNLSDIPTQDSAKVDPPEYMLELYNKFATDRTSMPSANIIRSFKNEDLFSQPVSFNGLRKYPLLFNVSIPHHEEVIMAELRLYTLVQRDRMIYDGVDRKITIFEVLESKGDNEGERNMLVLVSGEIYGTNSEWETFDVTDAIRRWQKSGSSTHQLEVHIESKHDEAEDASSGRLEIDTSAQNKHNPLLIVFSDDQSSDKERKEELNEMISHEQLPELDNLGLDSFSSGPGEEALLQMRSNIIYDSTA

B1: ActRIIB-hFc (Fc fusion)
chain: GRGEAETRECIYYNANWELERTNQSGLERCEGEQDKRLHCYASWRNSSGTIELVKKGCWLDDFNCYDRQECVATEENPQVYFCCCEGNFCNERFTHLPEAGGPEVTYEPPPTAPTGGGTHTCPPCPAPELLGGPSVFLFPPKPKDTLMISRTPEVTCVVVDVSHEDPEVKFNWYVDGVEVHNAKTKPREEQYNSTYRVVSVLTVLHQDWLNGKEYKCKVSNKALPVPIEKTISKAKGQPREPQVYTLPPSREEMTKNQVSLTCLVKGFYPSDIAVEWESNGQPENNYKTTPPVLDSDGSFFLYSKLTVDKSRWQQGNVFSCSVMHEALHNHYTQKSLSLSPGK
notes: Extracellular domain of human ActRIIB, linker, human Fc
B2: TGF-β2 (ligand, human, UniProt P61812 303-414, looked up)
chain: ALDAAYCFRNVQDNCCLRPLYIDFKRDLGWKWIHEPKGYNANFCAGACPYLWSSDTQHSRVLSLYNTINPEASASPCCVSQDLEPLTILYYIGKTPKIEQLSNMIVKSCKCS
notes: also called hTGF-β2
B3: ALK1-mFc (Fc fusion, mouse, UniProt Q61288 23-119, looked up)
chain: DLAKPSKLVNCTCESPHCKRPFCQGSWCTVVLVREQGRHPQVYRGCGSLNQELCLGRPTEFLNHHCCYRSFCNHNVSLMLEATQTPSEEPEVDAHLP
notes: extracellular domain; Mouse ALK1 fused to a murine Fc domain with a linker; also called mALK1-mFc; not shown: linker and murine Fc domain
B4: BMP7 (ligand, human, UniProt P18075 293-431, looked up)
chain: STGSKQRSQNRSKTPKNQEALRMANVAENSSSDQRQACKKHELYVSFRDLGWQDWIIAPEGYAAYYCEGECAFPLNSYMNATNHAIVQTLVHFINPETVPKPCCAPTQLNAISVLYFDDSSNVILKKYRNMVVRACGCH
notes: also called hBMP-7
B5: hENG(360-457)-hFc (Fc fusion)
chain: QTKCADDAMTLVLKKELVAHLKCTITGLTFWDPSCEAEDRGDKFVLRSAYSSCGMQVSASMISNEAVVNILSSSSPQRKKVHCLNMDSLSFQLGLYLS
notes: Expressed in COS cells, not purified; not shown: linker and human IgG1 Fc domain
B6: BMP5 (ligand, human, UniProt P22003 317-454, looked up)
chain: AANKRKNQNRNKSSSHQDSSRMSSVGDYNTSEQKQACKKHELYVSFRDLGWQDWIIAPEGYAAFYCDGECSFPLNAHMNATNHAIVQTLVHLMFPDHVPKPCCAPTKLNAISVLYFDDSSNVILKKYRNMVVRSCGCH
B7: TGF-β3 (ligand, human, UniProt P10600 301-412, looked up)
chain: ALDTNYCFRNLEENCCVRPLYIDFRQDLGWKWVHEPKGYYANFCSGPCPYLRSADTTHSTVLGLYNTLNPEASASPCCVPQDLEPLTILYYVGRTPKVEQLSNMVVKSCKCS
notes: also called hTGF-β3
B8: hENG(360-437)-hFc (Fc fusion)
chain: QTKCADDAMTLVLKKELVAHLKCTITGLTFWDPSCEAEDRGDKFVLRSAYSSCGMQVSASMISNEAVVNILSSSSPQR
notes: as for B5
B9: activin A (ligand, human, UniProt P08476 311-426, looked up)
chain: GLECDGKVNICCKKQFFVSFKDIGWNDWIIAPSGYHANYCEGECPSHIAGTSGSSLSFHSTVINHYRMRGHSPFANLKSCCVPTKLRPMSMLYYDDGQNIIKKDIQNMIVEECGCS
notes: also called hActivin A
B10: BMP2 (ligand, human, UniProt P12643 283-396, looked up)
chain: QAKHKQRKRLKSSCKRHPLYVDFSDVGWNDWIVAPPGYHAFYCHGECPFPLADHLNSTNHAIVQTLVNSVNSKIPKACCVPTELSAISMLYLDENEKVVLKNYQDMVVEGCGCR
notes: also called hBMP-2
B11: hBMP-2/7 (ligand, human)
chain 1: B10 chain
chain 2: B4 chain
B12: ActRIIB-mFc (Fc fusion, not shown: a dimerising Fc or GST)
chain: GRGEAETRECIYYNANWELERTNQSGLERCEGEQDKRLHCYASWRNSSGTIELVKKGCWLDDFNCYDRQECVATEENPQVYFCCCEGNFCNERFTHLPEAGGPEVTYEPPPTAPT
B13: hENG(258-346)-hFc (Fc fusion)
chain: YVSWLIDANHNMQIWTTGEYSFKIFPEKNIRGFKLPDTPQGLLGEARMLNASIVASFVELPLASIVSLHASSCGGRLQTSPAPIQTTPP
notes: HEK 293, purified; not shown: linker and human IgG1 Fc domain

What was measured:
BMP5 = target: B6; assay: SPR (Biacore), ligand amine-coupled to CM5 chip, Fc fusion injected
BMP10 [1] = target: T1, BMP10; assay: as above
BMP6 = target: T2, BMP6; assay: as above
BMP9 [2] = target: T3, BMP9; assay: as above
hENG(26-586) = target: T4, hENG(26-586); assay: SPR (Biacore), immobilized hENG(26-586), soluble ligand; '-' = binding undetectable
Source text: Considered a co-receptor, ENG is widely thought to function by facilitating the binding of TGF-β1 and -3 to multi-protein complexes of type I and type II receptors. To investigate the possibility of direct ligand binding by isolated ENG, surface plasmon resonance (SPR) methodology (Biacore™ instrument) was used to screen for binding of captured proteins comprising the full-length extracellular domain of ENG to a variety of soluble human TGF-β family ligands.

hENG(26-437)-hFc = target: T5, hENG(26-437)-hFc; assay: SPR ligand screen; '-' = Binding undetectable
BMP10 [3] = target: T1, BMP10; assay: SPR, captured hENG-hFc, soluble BMP10; '-' = Binding undetectable
Method: (§1) SPR methodology was used to screen these hENG-hFc protein variants for high-affinity binding to human BMP9 and BMP10. In these experiments, captured hENG-hFc proteins were exposed to soluble BMP9 or BMP10 at 100 nM each.

BMP9 [4] = target: T3, BMP9; assay: SPR, captured hENG-hFc, soluble BMP9; '-' = Binding undetectable
Method: as §1

BMP10pro(22-315)-mFc = target: T6, BMP10pro(22-315)-mFc; assay: SPR (Biacore), BMP10pro-Fc captured by anti-Fc antibody, ligand injected
Method: (§2) The BMP10pro-Fc proteins were separately was captured onto the system using an anti-Fc antibody, and ligands were injected and allowed to flow over the captured receptor protein. […] The mouse Fc equivalent constructs behaved similarly. […] The affinity of BMP10pro(22-315)-hFc for BMP3b was not assessed.

BMP10pro(22-312)-mFc = target: T7, BMP10pro(22-312)-mFc; assay: as above
Method: as §2

Binder: B1
- Kd (BMP5): 2.92 nM
- Kd (BMP10 [1]): 0.0173 nM
- Kd (BMP6): 0.164 nM
- Kd (BMP9 [2]): 0.0335 nM

Binder: B2
- binding result (hENG(26-586)): no binding (tested: 25 nM)
- binding result (hENG(26-437)-hFc): no binding (tested: 100 nM)

Binder: B3
- binding result (BMP5): no binding
- binding result (BMP10 [1]): binds
- binding result (BMP6): no binding
- binding result (BMP9 [2]): binds

Binder: B4
- binding result (hENG(26-586)): no binding (tested: 25 nM)
- binding result (hENG(26-437)-hFc): no binding (tested: 100 nM)

Binder: B5
- binding result (BMP10 [3]): no binding (tested: 100 nM)
- binding result (BMP9 [4]): no binding (tested: 100 nM)

Binder: B6
- binding result (BMP10pro(22-315)-mFc): binds
- binding result (BMP10pro(22-312)-mFc): binds

Binder: B7
- binding result (hENG(26-586)): no binding (tested: 25 nM)
- binding result (hENG(26-437)-hFc): no binding (tested: 50 nM)

Binder: B8
- binding result (BMP10 [3]): no binding (tested: 100 nM)
- binding result (BMP9 [4]): no binding (tested: 100 nM)

Binder: B9
- binding result (hENG(26-586)): no binding (tested: 25 nM)
- binding result (hENG(26-437)-hFc): no binding (tested: 100 nM)

Binder: B10
- binding result (hENG(26-586)): no binding (tested: 25 nM)
- binding result (hENG(26-437)-hFc): no binding (tested: 100 nM)

Binder: B11
- binding result (hENG(26-586)): no binding (tested: 25 nM)
- binding result (hENG(26-437)-hFc): no binding (tested: 100 nM)

Binder: B12
- binding result (BMP5): binds

Binder: B13
- binding result (BMP10 [3]): no binding (tested: 100 nM)
- binding result (BMP9 [4]): no binding (tested: 100 nM)
